Target: the molecule itself
Assay: cryo-EM structure; maltoporin reconstituted in amphipol A8-35 (filaments); 2D classification and 3D reconstruction

B1: maltoporin (natural protein, UniProt P02943 26-446, looked up)
chain: VDFHGYARSGIGWTGSGGEQQCFQTTGAQSKYRLGNECETYAELKLGQEVWKEGDKSFYFDTNVAYSVAQQNDWEATDPAFREANVQGKNLIEWLPGSTIWAGKRFYQRHDVHMIDFYYWDISGPGAGLENIDVGFGKLSLAATRSSEAGGSSSFASNNIYDYTNETANDVFDVRLAQMEINPGGTLELGVDYGRANLRDNYRLVDGASKDGWLFTAEHTQSVLKGFNKFVVQYATDSMTSQGKGLSQGSGVAFDNEKFAYNINNNGHMLRILDHGAISMGDNWDMMYVGMYQDINWDNDNGTKWWTVGIRPMYKWTPIMSTVMEIGYDNVESQRTGDKNNQYKITLAQQWQAGDSIWSRPAIRVFATYAKWDEKWGYDYTGNADNNANFGKAVPADFNGGSFGRGDSDEWTFGAQMEIWW
notes: maltoporin, a beta-barrel transmembrane protein; One protein embedded in two polymers (SMA or amphipol A8-35); E. coli LamB is my surmise; also called maltoporin-SMA; maltoporin-Apol; source: purified using DDM-mediated extraction, detergent exchanged with SMA (bio-beads) or amphipol A8-35
  stoichiometry N: 3
